Changes are numbered by the printed parent chain.
B1: BMS3h-41-1 (other)
VH: EVQLLESGEGLVQPGGSLRLSCAASGFTFTEHEMIWVRQAPGKGLEWVSSISGNGANTYYADSVKGRFTISRDNSKNTLYLQMNSLRPEDTAVYYCAKEPLRFDYWGQGTLVTVSS
B2: BMS3h-41-2 (other)
VH: B1 VH with E9G, F27S, H32Y, V48I, P88A, Y95F, W106R
B3: BMS3h-41-13 (other)
VH: B1 VH with G8A, E9G, T30A, H32Y, P88A, T110A
B4: BMS3h-41-9 (other)
VH: B1 VH with S7P, E9G, H32Y, Q39K, L45M, Y105D
B5: BMS3h-43-1 (other)
VH: EVQLLESGGGLVQPGGSLRLSCTASGFTFNMYEMSWVRQAPGKGLEWVSGISRRGFTTYYADSVKGRFTISRDNSKNTLYLQMNSLRAEDTAVYYCAKEPITYDLRYARFDYSGQGTLVTVSS
B6: BMS3h-43-5 (other)
VH: B5 VH with M31T, S52G
B7: BMS3h-43-11 (other)
VH: B5 VH with Q39K, R54H, L105M, S113W
B8: BMS3h-43-3 (other)
VH: B5 VH with S75F, L105M, S113G
B9: BMS3h-38-235 (other)
VH: EVQLLASGGGLVQPGGSLRLSCAASGFTFEEEEMIWVRQAPGKGLEWVSAISRNGYSTYYADSVKGRFTISRDNSKNTLYLQMNSLRAEDTAVYYCGKEPFRYDYWGQGTLVTVSS
B10: BMS3h-38-238 (other)
VH: B9 VH with N54S
B11: BMS3h-38-237 (other)
VH: B9 VH with N54G, Y56W
B12: BMS3h-38-3 (other)
VH: B9 VH with V48I, R53G, N54S, Y56G, Y103F
B13: BMS3h-56-1 (other)
VH: EVQLLESGGGLVQPGGSLRLSCAASGFTFRDYEMWWVRQAPGKGLERVSAINPQGTRTYYADSVKGRFTISRDNSKNTLYLQMNSLRAEDTAVYYCAKLPFTFEDWGQGTLVTVSS
B14: BMS3h-56-270 (other)
VH: B13 VH with F101T, T102L, E104Q
B15: BMS3h-56-217 (other)
VH: B13 VH with Q54W, T56S, R57L
B16: BMS3h-56-206 (other)
VH: B13 VH with Y95H, F101M, T102F, S116N
B17: BMS3h-56-248 (other)
VH: B13 VH with Q54Y, T56N, R57L, E104D
B18: BMS3h-56-8 (other)
VH: B13 VH with L18R
B19: BMS3h-56-261 (other)
VH: B13 VH with T102F, E104Q, D105E
B20: BMS3h-56-253 (other)
VH: B13 VH with Q54A, T56G, R57Y, Y95H
B21: BMS3h-56-262 (other)
VH: B13 VH with F101Q, T102L, E104H, W106R
B22: BMS3h-56-7 (other)
VH: B13 VH with A92S, Y95H, L99P, T102I, E104G, Q108P
B23: BMS3h-56-244 (other)
VH: B13 VH with Q54W, T56G, R57L, E104D
B24: BMS3h-56-266 (other)
VH: B13 VH with T102F, E104H, D105E
B25: BMS3h-56-215 (other)
VH: B13 VH with Q54H, T56S, R57L, E104D
B26: BMS3h-56-269 (other)
VH: B13 VH with T102R, E104S, W106R
B27: BMS3h-56-19 (other)
VH: B13 VH with Y95H
B28: BMS3h-56-243 (other)
VH: B13 VH with Q54W, T56G, R57F
B29: BMS3h-56-202 (other)
VH: B13 VH with F101T, T102Y, E104S, W106R
B30: BMS3h-56-21 (other)
VH: B13 VH with A97L
B31: BMS3h-56-9 (other)
VH: B13 VH with K65M, T102M, E104D, W106R
B32: BMS3h-56-203 (other)
VH: B13 VH with T102F, D105E
B33: BMS3h-56-246 (other)
VH: B13 VH with Q54W, R57L
B34: BMS3h-56-239 (other)
VH: B13 VH with Q54W, T56S, R57L, E104D
B35: BMS3h-56-232 (other)
VH: B13 VH with Q54W, T56S, R57H, E104D
B36: BMS3h-56-201 (other)
VH: B13 VH with T102Y, E104Q, D105E
B37: BMS3h-56-15 (other)
VH: B13 VH with Q39R
B38: BMS3h-56-6 (other)
VH: B13 VH with T28S, V37Y, T102I, E104D, D105N, W106R
B39: BMS3h-56-265 (other)
VH: B13 VH with F101Q, T102L, E104Q
B40: BMS3h-56-258 (other)
VH: B13 VH with T102Y, E104H, D105E
B41: BMS3h-56-2 (other)
VH: B13 VH with E104D
B42: BMS3h-56-224 (other)
VH: B13 VH with Q54W, T56Q, R57L
B43: BMS3h-5 (other)
VH: EVQLLESGGGLVQPGGSLRLSCAASGFTFDEHDMSWVRQAPGKGLEWVSRIGPDGFHTYYADSVKGRFTISRDNSKNTLYLQMNSLRAEDTAVYYCAKGRIPTLHFDYWGQGTLVTVSS

Each binder was assayed against human CD40 (human, UniProt P25942 21-277) (assay: cell-based or functional assay).
human CD40, sequence (P25942 21-277 limits assumed): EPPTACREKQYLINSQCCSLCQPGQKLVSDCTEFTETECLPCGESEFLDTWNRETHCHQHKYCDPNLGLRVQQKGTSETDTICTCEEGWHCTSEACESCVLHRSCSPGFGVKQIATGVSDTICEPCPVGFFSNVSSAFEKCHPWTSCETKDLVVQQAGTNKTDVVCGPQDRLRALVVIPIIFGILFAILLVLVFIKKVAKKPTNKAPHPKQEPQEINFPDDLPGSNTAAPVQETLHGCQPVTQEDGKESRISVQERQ

hIZCD40L-driven Human B Cell Proliferation EC50 | CHO-hCD40L-driven DC Activation IL-12 EC50 | CHO-hCD40L-driven Human B Cell Proliferation EC50 | T-B cell MLR EC50 | Binder
104 nM |  |  |  | B1
47 nM |  |  |  | B2
208 nM |  |  |  | B3
148 nM |  |  |  | B4
53 nM |  |  |  | B5
180 nM |  |  |  | B6
30 nM |  |  |  | B7
87 nM |  |  |  | B8
0.4 nM |  |  |  | B9
0.7 nM |  |  |  | B10
0.4 nM |  |  |  | B11
10 nM |  |  |  | B12
7 nM |  |  |  | B13
0.31 nM |  |  |  | B14
0.1 nM | 9.4 nM | 13 nM | 16 nM | B15
0.1 nM | 0.7 nM | 6 nM | 5.25 nM | B16
0.36 nM |  |  |  | B17
5 nM |  |  |  | B18
0.17 nM | 3 nM | 25.5 nM | 17 nM | B19
0.4 nM |  |  |  | B20
0.31 nM |  |  |  | B21
8 nM |  |  |  | B22

hIZCD40L-driven Human B Cell Proliferation EC50 | CHO-hCD40L-driven DC Activation IL-12 EC50 | CHO-hCD40L-driven Human B Cell Proliferation EC50 | T-B cell MLR EC50 | Binder
0.17 nM | 12.6 nM | 26 nM | 21 nM | B23
0.19 nM | 2.8 nM | 19.5 nM | 13.8 nM | B24
0.2 nM | 11 nM | 41 nM | 31 nM | B25
0.14 nM | 1.8 nM | 15 nM | 9.7 nM | B26
3 nM |  |  |  | B27
0.15 nM | 8.8 nM | 13.5 nM | 14.2 nM | B28
0.6 nM | 2.9 nM | 39 nM | 50 nM | B29
2 nM |  |  |  | B30
3 nM |  |  |  | B31
0.45 nM | 3.7 nM | 51 nM | 52 nM | B32
0.24 nM | 23.2 nM | 34 nM | 23.8 nM | B33
0.11 nM | 5.8 nM | 18 nM | 13.5 nM | B34
0.27 nM | 7.3 nM | 37 nM | 42 nM | B35
0.12 nM | 0.93 nM | 11 nM | 7.25 nM | B36
2 nM |  |  |  | B37
4 nM |  |  |  | B38
0.36 nM |  |  |  | B39
0.079 nM | 1.52 nM | 11 nM | 8.7 nM | B40
3 nM |  | 326 nM | 276 nM | B41
0.5 nM | 18 nM | 26 nM | 47 nM | B42
> 7000 nM |  | > 7000 nM |  | B43
